In paper PMC10196804 (The Journal of Biological Chemistry, 2023):
Substitutions are numbered along the chain they refer to.

T1: His-HERC2 (amino acids 2540–2700) (human, UniProt O95714 2540-2700)
T1 construct: source: E. coli BL21-CodonPlus (DE3)-RIPL, purified (nickel–nitrilotriacetic acid beads, PD-10 desalting)
T1 sequence (looked up): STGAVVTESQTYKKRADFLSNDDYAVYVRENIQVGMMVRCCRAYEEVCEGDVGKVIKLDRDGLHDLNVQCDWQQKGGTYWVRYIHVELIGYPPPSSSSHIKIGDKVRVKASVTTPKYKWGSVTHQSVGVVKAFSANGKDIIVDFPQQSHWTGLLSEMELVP

B1: GST-NCOA4 (amino acids 383–522) C418S (domain or fragment, human, UniProt Q13772 383-522, looked up)
chain: SMVTEDWLVQNHQDPCKVEEVCRANEPCTSFAECVSDENCEKEALYKWLLKKEGKDKNGMPVEPKPEPEKHKDSLNMWLCPRKEVIEQTKAPKAMTPSRIADSFQVIKNSPLSEWLIRPPYKEGSPKEVPGTEDRAGKQK
notes: C418S; Absorption at 330 and 420 nm not attenuated (Fe–S cluster kept); source: E. coli BL21-CodonPlus (DE3)-RIPL, purified (Glutathione Sepharose, PD-10 desalting)
B2: GST-NCOA4 (amino acids 383–522) WT (domain or fragment, human, UniProt Q13772 383-522, looked up)
chain: B1 chain with S36C
notes: Vector pGEX6p-1; Bacteria were grown with Cys and FAC; the UV–visible spectrum resembles that of 2Fe–2S cluster proteins; also called glutathione S-transferase (GST)-fused NCOA4 (amino acids 383–522); source: E. coli BL21-CodonPlus (DE3)-RIPL, purified (Glutathione Sepharose, PD-10 desalting)

Molecular target: T1, His-HERC2 (amino acids 2540–2700)
Test: pull-down; GST-tagged proteins (2 μg) and His-HERC2 (amino acids 2540–2700) (2.8 μg) in 20 mM Tris–HCl pH 7.5, 150 mM NaCl, 0.1% Triton X-100, 1 mM DTT; Glutathione Sepharose beads, 1 h at 4 °C; gel stained with CBB
Details: both partners purified

| Binder | binding result |
| --- | --- |
| B1 | binds |
| B2 | binds |
